A short description of the data set: yeast display, Sf9 membrane polyspecificity reagent, FACS + sequencing; frameworks hold sequencing errors. Put shortly: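 A nanobody's polyreactivity label depends on the gate it was sorted from. Yeast display cells were stained with 10% biotinylated, detergent-solubilized Sf9 membrane reagent for 1 hour at 4 °C, enriched on streptavidin microbeads and sorted by FACS. The low and high (top ~1%) gates were set on anti-HA fluorescence for expression and streptavidin fluorescence for reagent binding.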
Turning to “QVQLVESGGGLVQAGGSLRLSCAASGFTFGGYAMGWYRQAPGKERELVAAITRSGGRTYYADSVKGRFTISRDNAKNTVYLQMNSLKPEDTAVYYCNAYVIRALGYGGYDYWGQGTQVTVSS”, the “polyreactivity (PSR sort gate)” value is listed as “high polyreactivity”.

Consider “QVQLVESGGGLVQAGGSLRLSCAASGFTFGGYARGWSRQAPRTERELVAAISSSAGRTYYADSVKGRFTISRDNAKNTVYVQMNRLKPEDTAVYYCNTGGVYGPRRYYYWGQGTQVTVSS”, for which the “polyreactivity (PSR sort gate)” value was “high polyreactivity”.

For the sequence “QVQLVESGGGLVQAGGSLRLSCAASGFTFGHYAMGWYRQAPGKERELVAAISKSGTRTYYADSVKGRFTISRDNAKNTVYLLMNSLKPEDTAVYYCATTAYNGYDYWGQGTQVTVSS”, the “polyreactivity (PSR sort gate)” value is given as “high polyreactivity”.

As to “QVQLVESGGGLVQAGGSLRLSCAASGFTFGHYAMGWYRQAPGKERELVAAISRSGGTTSYADSVKGRFTISRDNAKNTVYLQMNSLKPEDTAVYYCNKDYIWARYGGGRDYWGQGTQVTVSS”, the “polyreactivity (PSR sort gate)” value is on record as “low polyreactivity”.

On to “QVQLVESGGGLVQAGGSLRLSCAASGFTFGHYVMGWSRQAPGKERELVAAITLSGGGTYYADSVKGRFTISRDNAKNTVYLQMNSLKPEDTAVYYCAAVGGEHAKKTYSRYKVDYWGQGTQVTVSS”, for which the “polyreactivity (PSR sort gate)” value is on record as “low polyreactivity”.

On to “QVQLVESGGGLVQAGGSLRLSCAASGFTFGLYGMGWYRQAPGKERELVAAISSSGGDTYYADSVKGRFTISRDNAKNTVYLQMNSLKPEDTAVYYCAADRLPQYDYWGQGTQVTVSS”, for which the “polyreactivity (PSR sort gate)” value was “low polyreactivity”.

Consider “QVQLVESGGGLVQAGGSLRLSCAASGFTFGNYVMGWYRQAPGKERELVAAISKRGTSTYYADSVKGRFTISRDNAKNTVYLQMNSLKPEDTAVYYCAADGVYSHKDGLWGQGTQVTVSS”, for which the “polyreactivity (PSR sort gate)” value is “high polyreactivity”.

For “QVQLVESGGGLVQAGGSLRLSCAASGFTFGPNTMGWYRQAAGKERELVATITWRGDGSTYYADSVKGRFTISRDNAKNTVYLQMNSLKPEDTAVYYCAAVIRPFSRRDMYYWGQGTQVTVSS”, the “polyreactivity (PSR sort gate)” value is given as “low polyreactivity”.

For “QVQLVESGGGLVQAGGSLRLSCAASGFTFGPYAMGWYRQAPGKERELVAGITWSGASTYYADSVKGRFTISRDNAKNSVYLQMNSLKPEDTAVYYCARYYRLGSRYDYWGQGTQVTVSS”, the “polyreactivity (PSR sort gate)” value is “low polyreactivity”.

Turning to “QVQLVESGGGLVQAGGSLRLSCAASGFTFGPYDMGWYRQAPGKERELVAVIIGGDSTNYADSVKGRFTISRDNAKNSVYLQMNSLKPEDTAVYYCAADYIDRVGWMDYWGQGTQVTVSS”, the “polyreactivity (PSR sort gate)” value is listed as “low polyreactivity”.

For “QVQLVESGGGLVQAGGSLRLSCAASGFTFGRYALGWYRQPPGKERELVAVISWSGVSTYYADSVKGRFTISRDNAKNTVYLQMNSLKPEDTAVYYCNKRSYHYPYGYDYWGQGTQVTVSS”, the “polyreactivity (PSR sort gate)” value is “high polyreactivity”.

For “QVQLVESGGGLVQAGGSLRLSCAASGFTFGRYAMGRYRPAPGKVRELVATITRTGSTNYADSVKGRFTISRDNAKNTVDLQMHSLKPEDTAVYYCNAVYSACRYVKYDYWGQGTQVTVSS”, the “polyreactivity (PSR sort gate)” value is recorded as “low polyreactivity”.

With “QVQLVESGGGLVQAGGSLRLSCAASGFTFGRYAMGWYRQAPGKERELVAAIATRGGSTYYADSVKGRFTISRDNAMNTVYLQMNSLKPEDTAVYYCAAGGYYVRYDYWGQGTQVTVSS”, the “polyreactivity (PSR sort gate)” value is listed as “high polyreactivity”.

As for “QVQLVESGGGLVQAGGSLRLSCAASGFTFGRYAMGWYRQAPGKERELVAAISYSGGSTYYADSVKGRFTISRDNAKNTVYLQMNSLKPEDTAVYYCAARDSYWSVYYWGQGTQVTVSS”, the “polyreactivity (PSR sort gate)” value is “high polyreactivity”.

Regarding “QVQLVESGGGLVQAGGSLRLSCAASGFTFGRYAMGWYRQAPGKERELVAAITRGSGGSYYADSVKGRFTISRDIAKNTVYLQMNSLKPDDTAVYYCATGSRSRGALRYAHFDYWGQGTQVTVSS”, the “polyreactivity (PSR sort gate)” value is listed as “high polyreactivity”.

Turning to “QVQLVESGGGLVQAGGSLRLSCAASGFTFGSNAMGWYRPAAGKERELVASITTRGGSTYYADSVKGRFTISRDNAKNTVYLQMNSLKPEDTAVYYCAARARYPNWTYYYWGQGTQVTVSS”, the “polyreactivity (PSR sort gate)” value is “high polyreactivity”.

Turning to “QVQLVESGGGLVQAGGSLRLSCAASGFTFGSNAMGWYRQAPGKERELVAAISSRGGRTYYADSVKGRFTISRDNAKNTVYLQMNSLKPEDTAVYYCNADATVAWREQEYEYWGQGTQVTVSS”, the “polyreactivity (PSR sort gate)” value was “high polyreactivity”.

In the case of “QVQLVESGGGLVQAGGSLRLSCAASGFTFGSNAMGWYRQAPGKERELVAAISWSGGRTYYADSVKGRFTISRDNAKNTVYLQMNILKPEDTAVFYCNKQYVKPWYRGYYYWGQGTQVTVSS”, the “polyreactivity (PSR sort gate)” value is “high polyreactivity”.

In the case of “QVQLVESGGGLVQAGGSLRLSCAASGFTFGSYAKGWYRQAPGKERELVAAIRASGGRTYYADSVKGRFTISRDNAKNTVFLQMNSLKPEDTAVYYCAADTGGNPKYDYWGQGTQVTVSS”, the “polyreactivity (PSR sort gate)” value is “high polyreactivity”.

Regarding “QVQLVESGGGLVQAGGSLRLSCAASGFTFGSYAMGWYRQAPGKDRELVARISSDGSTNYADSVKGRFTISRDYAKNTVYLQMNSLKPEDTAVYYCAVRHRYTRAYWGRDYWGQGTQVTVSS”, the “polyreactivity (PSR sort gate)” value is given as “low polyreactivity”.

Take “QVQLVESGGGLVQAGGSLRLSCAASGFTFGSYAMGWYRQAPGKEREFVAAITRSGGRTYYADSVKGRFTISRDNAKNTVYLQMNSLKPEDTAVSYCNAYRSALYTPEYDYWGQGTQVNVSS”: the “polyreactivity (PSR sort gate)” value is “high polyreactivity”.

In the case of “QVQLVESGGGLVQAGGSLRLSCAASGFTFGSYAMGWYRQAPGKERELVAAITSRGGSTYYADSVKGRFTISRDNAKNTVYLQMNSLKPEDTAVYYCNAVLPVYRTNMDYWGQGTQVTVSS”, the “polyreactivity (PSR sort gate)” value is on record as “high polyreactivity”.

Turning to “QVQLVESGGGLVQAGGSLRLSCAASGFTFGSYAMGWYRQAPGKERELVAAITWSGGSTYYADSVKGRFTISRDNAKNTVYLQMNSLKPEDTAVYYCNAEIRYYGYDYWGQGTQVTVSS”, the “polyreactivity (PSR sort gate)” value is reported as “high polyreactivity”.

For the sequence “QVQLVESGGGLVQAGGSLRLSCAASGFTFGSYAMGWYRQAPGKERELVAASTRRGDNTYYADSVKGRFTISRDNAKNTVYLQMNSLKPEDTAVYYCNVGLRSVVSGEYWGHGTQVTVSS”, the “polyreactivity (PSR sort gate)” value is listed as “high polyreactivity”.

Consider “QVQLVESGGGLVQAGGSLRLSCAASGFTFGSYAMGWYRQATGKERELVAVITRSGRTNYADSVKGRFTITRDNAKNTVFLQMNSMKPEDTAVYYCNADDVDDEVSPDLTEMDNWGLGTQVTVSS”, for which the “polyreactivity (PSR sort gate)” value is on record as “low polyreactivity”.

With “QVQLVESGGGLVQAGGSLRLSCAASGFTFGTYAMGWYRQAPGKERELVAAISKRGGSTYYADSVKGRFTISRDNAKNTVYLQMNSLKPEDTAVYYCATGSYTTYGYGYWGQGTQVTVSS”, the “polyreactivity (PSR sort gate)” value is “high polyreactivity”.

With “QVQLVESGGGLVQAGGSLRLSCAASGFTFGVYAKGWYRQEPGKEREMVAAISSRRGSTYYADSVKGRFTISRDNAKNTVYLQMNSLKPEDTAVYYCAKRLGNTVGKEDYWGQGTQVTVTS”, the “polyreactivity (PSR sort gate)” value is “low polyreactivity”.

Regarding “QVQLVESGGGLVQAGGSLRLSCAASGFTFGVYALGGYRQAPGKEREFVAAISRSGSSTYYADSVKGRFTISRDNAKNTVYLQMNSLKPEDTAVYYCAKRSGNRYSFDYWGQGTQVTVSS”, the “polyreactivity (PSR sort gate)” value is reported as “high polyreactivity”.

As for “QVQLVESGGGLVQAGGSLRLSCAASGFTFGWYAMGWYRQAPGKEREFVATITYSGGSTYYADSVKGRFTISRDNAKNTVYLQMNSLKPEDTAVYYCAAARYWYRRFDYWGQGTQVTVSS”, the “polyreactivity (PSR sort gate)” value is listed as “high polyreactivity”.

On to “QVQLVESGGGLVQAGGSLRLSCAASGFTFGYYAMGWYRQAPGKERELVAAISRSGGRTYYADSVKGRFTISRDNAKNTVYLEMNSLKPEDTAVYYCNAVIHGWTLDYEYWGQGTQVTVSS”, for which the “polyreactivity (PSR sort gate)” value is “high polyreactivity”.

In the case of “QVQLVESGGGLVQAGGSLRLSCAASGFTFGYYAMGWYRQAPGKERELVAAISSSGGSTYYADSVKGRFTISRDNAKNTVYLQMNSLKPEDTAVYYCAVVVFSRVYRYFTSDYWGQGTQVTVSS”, the “polyreactivity (PSR sort gate)” value was “high polyreactivity”.

As to “QVQLVESGGGLVQAGGSLRLSCAASGFTFGYYAMGWYRQAPGKERELVAAITYDGDITYYADSVKGRFTISRDNAKNTVYLQMNSLKPEDTAVYYCNRDVLTFNYDYWGQGTQVTVSS”, the “polyreactivity (PSR sort gate)” value was “low polyreactivity”.

As to “QVQLVESGGGLVQAGGSLRLSCAASGFTFGYYAMGWYRQAPGKERELVAAITYDGDITYYADSVKGRFTISRDNAKNTVYLQMNSLKPEVTAVYYCNRDVLTFNYDYWGQGTQVTVSS”, the “polyreactivity (PSR sort gate)” value is on record as “low polyreactivity”.

Consider “QVQLVESGGGLVQAGGSLRLSCAASGFTFGYYAMGWYRQAPGKERELVATIDRGGGTSYADSVKGRFTISRDNAKNTVYLQMNSLKPEDTAVYYCNRACYGAKARRYRSYWGQGTQVTVSS”, for which the “polyreactivity (PSR sort gate)” value is “high polyreactivity”.

With “QVQLVESGGGLVQAGGSLRLSCAASGFTFGYYGMGWSRQAPGKERELVAGISSSGSRTYYADSVKGRFTISRDNAKNTVYLQMNSLKPEDTAVYYCNKYYSGKSYTGEDYWGQGTQVTVSS”, the “polyreactivity (PSR sort gate)” value is on record as “high polyreactivity”.

With “QVQLVESGGGLVQAGGSLRLSCAASGFTFGYYTMGWYRQAPGKERELVAAITWRGTTYYADSVKGRFTISRDNAKNTVYLQMNSLKPEDTAVYYCATVVLLRIWGGYWGQGTQVTVSS”, the “polyreactivity (PSR sort gate)” value is given as “high polyreactivity”.

Turning to “QVQLVESGGGLVQAGGSLRLSCAASGFTFGYYTMGWYRQAPGKERELVASISRTGGRTYADSVKGRFTISRDNAKNTVYLQMNSLKPEDTAVYYCAAYRQGSAYDYWGQGTQVTVSS”, the “polyreactivity (PSR sort gate)” value is listed as “high polyreactivity”.

As to “QVQLVESGGGLVQAGGSLRLSCAASGFTFGYYVMGWYRQAPGKERELVAAITSGGRTKYADSVKGRFTISRDNAKNTVYLQMNSLKPEDTAVYYCAAKSRVHVDYWGQGTQVTVSS”, the “polyreactivity (PSR sort gate)” value was “high polyreactivity”.

Consider “QVQLVESGGGLVQAGGSLRLSCAASGFTFHFYAMGWYRQAPGKEREWVAAISWRGSSTYYADSVKGRFTISRDNAKNTVYLQMNSLKPEDTAVYYWNALYYYPYDYWGQGTQVTVSS”, for which the “polyreactivity (PSR sort gate)” value is reported as “high polyreactivity”.

On to “QVQLVESGGGLVQAGGSLRLSCAASGFTFHSYAMGWYIQAPGKERELVAAISARGGSTYYADSVKGRFTISRDNAKNTVYLQMNSLKPEDTAVYYCAAYSYQVRFYYWGHGTQVTVSS”, for which the “polyreactivity (PSR sort gate)” value is “high polyreactivity”.

For the sequence “QVQLVESGGGLVQAGGSLRLSCAASGFTFHSYAMGWYRQAPGKERELVAAISYSGGSTYYADSVKGRFTISRDNAKNTVYLQMHSLKPEDTAVYYCAGLRYIYGYANDYWGQGTQVTVSS”, the “polyreactivity (PSR sort gate)” value is “low polyreactivity”.

(Values after the nanobody polyreactivity screen of Harvey et al. (2022).)
